Laboratory results from article PMC12241602.

What was measured:
[1] = target: His6-MadB (class I lantibiotic dehydratase MadB) (Clostridium sp. Maddingley); experiment: SEC-MALS; 100 uL of 20 uM MadB on Superdex 200 10/300 Increase, 50 mM HEPES pH 8.0, 200 mM NaCl, 0.5 mL/min
[2] = target: His6-MadB (class I lantibiotic dehydratase MadB) (Clostridium sp. Maddingley); experiment: cryo-EM structure; single particle cryo-EM of purified apo MadB and of MadB with MadL3, C2 symmetry imposed
[3] = target: His6-MadB (class I lantibiotic dehydratase MadB) (Clostridium sp. Maddingley); experiment: nanoDSF; 2 uM His6-MadB with or without 10 uM ligand peptide, 10 min at room temperature, 50 mM HEPES, 500 mM NaCl, pH 7.5, ramp 1 °C/min from 25 to 95 °C, intrinsic fluorescence 330/350 nm

Question: Which results are given for “His6-MadB (class I lantibiotic dehydratase MadB) (enzyme)”?
Answer: stoichiometry N [1]: 2; stoichiometry N [2]: 2

Question: With “MadL1 (isolated leader peptide of maddinglicin A)” as the substance, how does the Tm shift [3] read?
Answer: 1.8 °C
